For assay [1], the target named is BG505 NFL I559P (HIV-1 BG505 (clade A)). The assay is described as follows: SEC; Superdex 200 16/60 or 10/300 GL after lectin-affinity chromatography; also after negative selection or rEK cleavage where told. A general note: SEC sorts molecules by how far they enter the pores of the column.
Assay [2] concerns the target 16055 NFL N554P (HIV-1 16055 (clade C)). The description is as above.
The target in assay [3] is 16055 NFL I559P (HIV-1 16055 (clade C)). The assay is described as above.
Assay [4] has as its target BG505 NFL Q563P (HIV-1 BG505 (clade A)). The description is as above.
Assay [5] addresses 16055 NFL Q562P (HIV-1 16055 (clade C)). The description is as above.
Assay [6] shares this target. Nature of the assay: negative stain electron microscopy; 2D class averages (RELION) of purified trimers, ~0.01 mg/mL, 0.7% uranyl formate.
Assay [7] has as its target BG505 NFL N554P (HIV-1 BG505 (clade A)). Nature of the assay: SEC; Superdex 200 16/60 or 10/300 GL after lectin-affinity chromatography; also after negative selection or rEK cleavage where told.
The target of assay [8] is 16055 NFL L555P (HIV-1 16055 (clade C)). Described as above.
For assay [9] the target is unchanged. Nature of the assay: negative stain electron microscopy; 2D class averages (RELION) of purified trimers, ~0.01 mg/mL, 0.7% uranyl formate.
For assay [10], the target named is BG505 NFL Q562P (HIV-1 BG505 (clade A)). The assay is described as follows: SEC; Superdex 200 16/60 or 10/300 GL after lectin-affinity chromatography; also after negative selection or rEK cleavage where told.
In assay [11] the target is 16055 NFL S553P (HIV-1 16055 (clade C)). Described as above.
Assay [12] has as its target BG505 NFL S553P (HIV-1 BG505 (clade A)). The assay is described as above.
Assay [13] concerns the target 16055 NFL Q563P (HIV-1 16055 (clade C)). The assay is described as above.
Assay [14] shares this target. The assay is described as follows: negative stain electron microscopy; 2D class averages (RELION) of purified trimers, ~0.01 mg/mL, 0.7% uranyl formate.
Assay [15] deals with BG505 NFL L555P (HIV-1 BG505 (clade A)). The assay is described as follows: SEC; Superdex 200 16/60 or 10/300 GL after lectin-affinity chromatography; also after negative selection or rEK cleavage where told.
Assay [16] shares this target. Nature of the assay: negative stain electron microscopy; 2D class averages (RELION) of purified trimers, ~0.01 mg/mL, 0.7% uranyl formate.

This note sets out measurements from publication PMC6056610.

For BG505 NFL I559P (domain or fragment), the stoichiometry N (in general, a count of units in the complex or per binding partner) in assay [1] was found to be 3. Substance 16055 NFL N554P (domain or fragment) came in with a stoichiometry N in assay [2] of 3. Consider 16055 NFL I559P (domain or fragment), for which the stoichiometry N in assay [3] was 3.

With BG505 NFL Q563P (domain or fragment), the stoichiometry N in assay [4] amounted to 3.

For 16055 NFL Q562P (domain or fragment), the stoichiometry N in assay [5] and in assay [6] was 3 each time. Turning to BG505 NFL N554P (domain or fragment), the stoichiometry N in [7] is 3. As for 16055 NFL L555P (domain or fragment), the stoichiometry N in assay [8] and in [9] was 3 each time. In turn, BG505 NFL Q562P (domain or fragment) returned a stoichiometry N in [10] of 3.

As for 16055 NFL S553P (domain or fragment), the stoichiometry N in [11] was found to be 3. BG505 NFL S553P (domain or fragment): in assay [12], the stoichiometry N came to 3. In the case of 16055 NFL Q563P (domain or fragment), the stoichiometry N in assay [13] and in [14] was 3 throughout. On to BG505 NFL L555P (domain or fragment), for which the stoichiometry N in assay [15] and in [16] was 3 each time.
